Assay: label from the status in PepcDB records
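Further: failed if final PepcDB status was selected cloned or expressed and not failed if soluble or beyond.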

Sequence | protein production
MLDSINRVLDRPDFGKLFLRVSFSVLMLFHGWHKLHGGIGFIEGMLTNAGLPAFVGYGVYVGEIIIPIMMILGIFTRPAALIFSFTMFVASLLVHSGDFLSLEKTGAWAVEGAAVFFFAGIAIALLGSGKYSVMSNPRWR | failed
MLDVRARAALSGPLDRAAAMLDRPAVTPNRLTALGLLTGLASAGSAAAGWWPAAAALWLLSRLADGLDGPLARRRGTANSSGAGGFLDISADFLVYGAFVVGVAVGVGGPALPFLLVLLTYYVNGTAFLAFSSIAERTGRRGDGRLSGGRSLNFLGGLAEGGETIAVHTLWCLLPGFAHTIAWVWAAVVAVTAAHRVVTGYRQLR | failed
MLEGEFLSVAELKDLTLSLASKFLNNLLASKLLVSKQLFIDRKKELGLLEERLKSGKAQFIVIYGRRRVGKTALILEFLRRHGGLYLLARETSEIENLERFSLRLAEYFNDSFLKKNPLRSLDAFFEYLSTKAEKPFIIAIDEFPYLVKGNKALPSILQEYWEMKLSKKKIFLIVSGSSVSMTERLLGYKSPLYGRRTAQLKLKPLDFFNAREFLPKYSLEDFVRVYGILGGTPAYLLEFSDEKSLEENLKSYFRVDSLLYGDALFILREELDEPRNYFAIMEAIARGNTTLGEIVNETGLERATVGKYLSVLIDLDLVRREVPITASRKSRKGRYYIADNYFAFWFRYVYPNADLIESGNGELLVDTVMDDIDHYTGEVFEGVAKEFLLRLNKSERLPFRFSRVGRWWYKNEEIDLVALNEREKKVLFIEVKWKDLSKREARGILKDLKRKAKLVGLDEWGKHYGLVAKSVRGKDEIKEEGWLAWDLEDIHRMAFLEHHHHHH | failed
MLEHLIKISRRNWSSLKVIILAGGRGKRITLFKPFLVVCGKPLISWAFDAVNKLSDKVYLGINQSHPLFTIFKHSIFKIFPTPDISYENDVKYVVESLGPPILVLPVDIAFINNNIINNLIERCAVDMCTLKSYGSYLGVTYWTGLNFSNYTDIEVKEKLYNINTWEDYIKANKECNILLEHHHHHH | not failed
MLELIIILLFIILSAIFSASETAYTSLSIIQIQDIRKKGKSGISVYNLVQSPSKLITTILIGNNISNIVASTLTTKFVLEKYGNSALAISTGLITIIVLIFAEILPKQIAILNNEIIALSTSFFLKPLIFIFTPLIYIINKIIKKILNLFKVKTSSQMTKESIKNMLSLAGSLGILKNDSRIFMQKMLDIDQVRASEIMTHRTGVFSLSSSSKLKDVIKLIKEEGYSRIPIYKGQSREQIIGILIAKDLIEVNKKDMNKNVSQFIKPAVFVQQNKRIKDILDIMRKKQKIMAIVIDEYGGFSGILTIEDIVEKIFGAISDEYDIKEEKPLITQINDNTYSILGETTFDEIEEAIGISIKHKEYTNTIGGYLIDLLDKIPTKNETVKTNDGEYFIKEIQNNKIETITFIKSKK | failed
MLELLTLLLPVAAASGWYAAARHHGRNLSAGLNDGLQRAYQTPTDTAIGARADEAFHLLRQIADSSAKTLELQLALGGLLRRSGELSKAIELHERLHSQPQMSDEQLHAIRFELGMDYLSAGLLDRAETVFAGLTATASHGKASLQQMLAIYQSEKDWVRAAECARSLKKFDAGQRNATLAHLLCEQAESAIARGETVAAHAHLQQALAEDPRCVRATLLKSRLALQRQQWAEAGTLLRSVEFQNPAFLPEVIGQLRLCHASLRDMDGYLTYLDYVYQRYRTEAAALLLADELAQREGAPAAASYLTGLLSERSSLNLIRRTLHYAGAATCIDGDCLSILRRCLTALDGLASMHPGYGCVQCGYECRELHWHCPTCRAWETIQPADPGVGFSGKTPATTPS | failed
MLELLYTALLYLIQPLIWIRLWVRGRKAPAYRKRWGERYGFYRRPLKPGGIMLHSVSVGETLAAIPLVRALRHRYPDLPITVTTMTPTGSERVQSAFGNDVQHVYLPYDLPDALNRFLNKIDPKLVLIMETELWPNLIAALHKRHIPLVIANARLSARSAAGYAKLGKFVRTLLRRITLIAAQNEEDGERFVALGAKNNQVTVTGSLKFDISVTPQLAAKAVTLRRQWAPHRPVWIATSTHDGEESIVIAAHQALLHQFPNLLLILVPRHPERFPDAINLVRQAGLSYITRSSGEVPSASTQVVVGDTMGELMLLYGIADLAFVGGSLVERGGHNPLEAAAHAIPVLMGPHTFNFKDICARLDQASGLITITDAATLAKEVSSLLTDADYRNFYGRHAVEVLYQNQGALQRLLQLLEPYLPPKTHLEHHHHHH | failed
MLETSSHFLKSFRLKRYIGFLLISLALLITPFVRIDGAHLFLISFEHKQLHFLGKIFSAEELQVMPFMVILLFIGIFFITTSLGRVWCGWACPQTFLRVLYRDVIETKIFKLHKKISNKQESPKNTPSYKIRKVLSVLLFAPVVAGLMMLFFFYFIAPEDFFMYLKNPSDHPIAMGFWLFSTAVVLFDIVVVAERFCIYLCPYARVQSVLYDNDTLNPIYDEKRGGALYNNQGHLFPLPPKKRSPENECVNCLHCVQVCPTHIDIRKGLQLECINCLECVDACTITMAKFNRPSLIQWSSTNAINTRQKVHLVRLKTIAYMGVIAIVIALLAITSFKKERMLLDINRNSDLYELRSSGYVDNDYVFLFHNTDNKDHEFYFKVLGQKDIQIKKPLNPIAIKAGQKIKAVVILRKPLKSNATEYKNAKDALIPITIQAYSADDKNITIERESVFIAPSED | failed
MLETVAGVTIGASCIILTIALTKKLGPEWAWINRKLIHLSIIPAALFFYYGIIPREIFSPAAALFGIAQLLAHVKNRELNWYQLKQNYGEVFFAFSASFITFVFPRDYASALLLVMAISDGVTGIIRHYYFKRNGFNVKLKKHWTGSLGYIITAIIIAVAFLDGNIIEKVGWAFILMLAEYQPWIDDNLAVPLVGSALYFLY | failed
MLETYALKNGAVFISDAHFLPKSPHLIHTLKELLSAKPPQVFFMGDIFHVLVGYLPLDKEQQKIIDLIHALSEISQVFYFEGNHDFSMRFVFNSKVMVFERQNQPVLFQYDNKRFLLAHGDLFITKAYEFYITQLTSTWARFFLTFLNLLSFKTLYPLFKKLIYQKPVRLWELEPKELQSFIEKRLKAYQNYIKDLNIGSIDGIIEGHFHLKSGAKIPLNTPIYCPLPSFYYEQSLFKVSSSVLEPSQNKDA | failed
MLEVHIPSVGPEAEGPRQSPEKSHMVFRVEVLCSGRRHTVPRRYSEFHALHKRIKKLYKVPDFPSKRLPNWRTRGLEQRRQGLEAYIQGILYLNQEVPKELLEFLRLRHFPTDPKASNWG | not failed
MLFDEKEILAITRWAKLYANQSPDRILLGSNDIPPEYRAAVATQIELWPRLRNKLPQWPGISSLYIPSRLSLEQSSGAVTSSYKSRFIREGTKVVDLTGGLGIDFIALMSKASQGIYIERNDETAVAARHNIPLLLNEGKDLNILTGDFKEYLPLIKTFHSDYIYVDPARRSGADKRVYAIADCEPDLIPLAAELLPFCSSILAKLSPMIDLWDTLQSLPHVQELHVVAAHGEVKELLVRMSLNEATIPPEKVPIHAVNLLSEDTVIPFIFTMEEERSISVPYADSIDKYVYEPHTALFKAGAFKTVAYRLGLRKLHPNSHLYTSEAYESAFPGRTFVLEEIIPFSTSVLKQLGKVVPRASISCRNFPLSPIELRQRSKMADGGEKTLMGTTMADGKKVLLLLRKAE | failed
MLFIPPPLLCLFIAIAMYFLPKIASYSVHFSVIVFVISLSFLIALSSVMQSLYVKPPLILVTLKAQQN | failed
MLFKRPDTETLYFALVNKDPAYEGVAYVCVTSTKIFCRFTCTARKPKIENCRFRETITECLEAGFRPCKRCKPMLSYGTPDGTVTALLTALENEPARRWREEDVVALGHDPSTVRRSFKRRFGMSFLEIARLRRVGDAAESLASGEAVIGAQIDAGYESGSGFRSAINQLFGTSPAAMKGRGFLKGDWIDTPIGPMLAVADDHALHLLEFADRPALPAELKRLKARTGADMVLGRTAVTGQIAAELAAYFAGRSGSFETRLAGHGTPFERDVWRNLREIPAGEIVSYSSLATAMERPTAVRAVARANGANQLAIVVPCHRVLGADGSLTGYGGGLWRKKWLIEHERRMARGLEHHHHHH | not failed
MLFSIVVHQMILFFSILLVGNVAAKQGVIQENYLPDLAKLVSKIFLPVLIFYMTYAGTTRQMVWENAAMIGLAALFYVVISAVTWIIAKGLRPAGDKAKVFQFAFIFGNTGFVGVPLLIALFPKDGILYLALFSIVDQLLFWTYGVYLATASDKKAKITLKSFVNPNIVAIALALIFIMIGAKLPTVIDDTLQTIKNAVGAMAMIYLGALIFYSDWKTAFKTKDLYFGIVVKMIILPILLGKLLLMTGLPNNMIWSMIILMSLPTMTVVPMIAKLYGHEGAYAAGITAATLAVSIVTIPVVVFFTT | failed
MLFSSASFVPIVRRMSRPTILPAYILATLPLVMALLATAVSIGTGDEVVNFFRQYRQAHPALTACMQVITDFGNPLLYLVYGAIFFRARKRGDRHDMRFVAVYIVVQLLVSFLAVRILKIGFGMPRPGTEGPAIPFSFKGVYNSFPSGHTTEIVGAVVPLAWRCKALLPTLALGIYMGIVGYSRIYLGMHHITDVFAGLLLGSVAAWIIHRLADRTPS | failed
MLFYLYVTRCKQLLNYNNMETDNGDKEKSEEDDLCALKDALEAVILFQGLSEYQKKLMFPNLKNLGAETIKELIDEWKELNVEELNLNIKKQTFFTKFANASWSLMLLIQQENNFCFWMFYVIPTSLFFVCCVLLHLLNDGS | failed
MLGLHGRKPAQVIVEPVAKLMIKLKVTPNQLTLVSAGLTVGVALLLIPTGHLIWAAVLTGLFAAFDMIDGTVARMQGGGTKFGATLDATCDRITDGALFGAITWWLVYSYDAPQALVAASLVCLVASQVISYVKARGEASGFTMDGGLVERPERLIVSLVGLGLTGMGVPYAIDVALWALAAGSIYTVVQRLVMAGKSPLAKEFTKAPAGAKADYSNTK | failed
MLGLVLLYVGIVLISNGICGLTKVDPKSTAVMNFFVGGLSIICNIVVITYSALHPTAPVEGAEDIAQVSHHLTSFYGPATGLLFGFTYLYAAINHTFGLDWRPYSWYSLFVAINTIPAAILSHYSDMLDDHKVLGITEGDWWAIIWLAWGVLWLTAFIENILKIPLGKFTPWLAIIEGILTAWIPAWLLFIQHWV | failed
MLGSIFTASAVVMILLGLGMLTVFTQRLVDQKIDIASSEIDRARVIVEEQITASGASTSVQARVNSARAALSSLGTSGGTETNAAYDPVVLVNNDDLVVSPEGYQIPERLRYFVSENQVSYQFSSIDQGDGSSYQALIIGTPTESDIPNLQVYLVFSMESDESSLALMRGLLSAALLIVVVLLVGIAWLATQQVTAPVRSASRIAERFAQGKLRERMVVEGEDEMARLAVSFNAMAESLSAQITKLEEYGNLQRQFTSDVSHELRTPLTTVRMAADLIADSEDELSPGARRASQLMNRELDRFESLLSDLLEISRHDAGVAELSTALHDVRIPVRSALEQVQHLATELDVELLVNLPEEAINIQGDSRRIERIIRNLLANAIDHSKGLPVELKVADNVDAVAIVVIDHGVGLKPGQDELVFNRFWRADPSRVRHSGGTGLGLAISREDAMLHGGNLDAAGTIGVGSIFRLVLPKEPHGNYREAPIPLIAPETPWEGEQQ | failed
